# Assay results: publication PMC3704941
# Where “and” joins values, the source holds several entries; their conditions need not be identical. Equal entries are not always repeated.
# Assays:
# [1] = target: truncated form of the monomeric type IV pilin from P. aeruginosa strain K122-4 [pilA (Δ1-28); ΔK122] (Pseudomonas aeruginosa strain K122-4); assay: SEC-MALS; MALS of the SEC-separated Peak 3/4 aliquot of 15 mg·mL^-1 ΔK122 after 24 hours incubation with MPD; signal overload at the detector noted
# [2] = target: truncated form of the monomeric type IV pilin from P. aeruginosa strain K122-4 [pilA (Δ1-28); ΔK122] (Pseudomonas aeruginosa strain K122-4); assay: SEC-MALS; silica-based column, 10 nm pore size, 10 mM Tris pH 7.4; 1 mg·mL^-1 ΔK122 incubated with MPD for 24 hours; Peaks 2-4
# [3] = target: truncated form of the monomeric type IV pilin from P. aeruginosa strain K122-4 [pilA (Δ1-28); ΔK122] (Pseudomonas aeruginosa strain K122-4); assay: SEC-MALS; silica-based column, 10 nm pore size, 10 mM Tris pH 7.4; 1 mg·mL^-1 ΔK122 incubated with MPD for 3 hours; relative peak areas
# [4] = target: truncated form of the monomeric type IV pilin from P. aeruginosa strain K122-4 [pilA (Δ1-28); ΔK122] (Pseudomonas aeruginosa strain K122-4); assay: SEC-MALS; silica-based column, 10 nm pore size, 10 mM Tris pH 7.4; 1 mg·mL^-1 ΔK122 before incubation with MPD; monomer to dimer
# [5] = target: truncated form of the monomeric type IV pilin from P. aeruginosa strain K122-4 [pilA (Δ1-28); ΔK122] (Pseudomonas aeruginosa strain K122-4); assay: SEC-MALS; silica-based column, 10 nm pore size, 10 mM Tris pH 7.4; 1 mg·mL^-1 ΔK122 incubated with MPD for 72 hours; relative peak areas
substance,measurement,setting,value
truncated form of the monomeric type IV pilin from P. aeruginosa strain K122-4 [pilA (Δ1-28); ΔK122] (domain or fragment),stoichiometry N,[1],4040
same,stoichiometry N,[2],14 and 20 and 40
same,percent of total species in the higher molecular weight peaks (3 hours with MPD),[3],55.1%
same,percent of total species in the higher molecular weight peaks (before MPD),[4],17.5%
same,stoichiometry N,[4],2
same,percent of total protein in the higher molecular weight peaks (72 hours with MPD),[5],90%
